Residue numbers refer to the chain shown, from its start. In names and notes the source's numbering stands.
B1: GST-tagged hCINAP (enzyme, human, UniProt Q9Y3D8 1-172, looked up)
chain: MLLPNILLTGTPGVGKTTLGKELASKSGLKYINVGDLAREEQLYDGYDEEYDCPILDEDRVVDELDNQMREGGVIVDYHGCDFFPERWFHIVFVLRTDTNVLYERLETRGYNEKKLTDNIQCEIFQVLYEEATASYKEEIVHQLPSNKPEELENNVDQILKWIEQWIKDHNS
notes: hCINAP (adenylate kinase 6, AK6), human cDNA, wild type; Vector pGEX4T1 is named in the plasmids section; also called GST-hCINAP; glutathione S-transferase-tagged hCINAP; source: E. coli BL21(DE3), purified
B2: GST-tagged hCINAP (H79G) (enzyme, human, UniProt Q9Y3D8 1-172, looked up)
chain: B1 chain with H79G
notes: hCINAP (adenylate kinase 6, AK6), human cDNA, H79G mutant with impaired adenylate kinase activity; also called H79G mutant hCINAP; source: E. coli BL21(DE3), purified

Columns and labels:
His-tagged LDHA [1] = biological target: T1, His-tagged LDHA (human, UniProt P00338 1-332); test: pull-down; GST pull-down: GST-tagged protein on glutathione-sepharose resin incubated with His-tagged protein, 4 °C, 3 h; details: both partners purified
His-tagged LDHA [2] = biological target: T1, His-tagged LDHA; test: pull-down; recombinant proteins from E. coli (Supplementary Fig. 3d,e); which partner was immobilised is not given; details: both partners purified

Binder | binding result (His-tagged LDHA [1]) | binding result (His-tagged LDHA [2])
B1 | binds | 
B2 |  | binds

— PMC5454382 (Nature Communications, 2017)
